Reference: patent publication US20230405078

Target: T1, elafin (AS-61641, Anaspec)
T1 chain: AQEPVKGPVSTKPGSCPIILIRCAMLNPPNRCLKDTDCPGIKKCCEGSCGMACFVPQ

B1: recombinant cathepsin S (1183-CY-010, R&D Systems) (protein)
chain: QLHKDPTLDHHWHLWKKTYGKQYKEKNEEAVRRLIWEKNLKFVMLHNLEHSMGMHSYDLGMNHLGDMTSEEVMSLMSSLRVPSQWQRNITYKSNPNRILPDSVDWREKGCVTEVKYQGSCGACWAFSAVGALEAQLKLKTGKLVSLSAQNLVDCSTEKYGNKGCNGGFMTTAFQYIIDNKGIDSDASYPYKAMDQKCQYDSKYRAATCSKYTELPYGREDVLKEAVANKGPVSVGVDARHPSFFLYRSGVYYEPSCTQNVNHGVLVVGYGDLNGKEYWLVKNSWGHNFGEEGYIRMARNKGNHCGIASFPSYPEI
ERK1/2 phosphorylation and ProCOL1A2 expression in colonic fibroblasts: reversed elafin-mediated inhibition of ERK1/2 phosphorylation and ProCOL1A2 expression in colonic fibroblasts
